# Measured values: paper PMC12474298 (Viruses, 2025)
# Where no end group is shown, it is not given here.
# B1: HaHV1 UL36h NLS peptide (residues 1491-1500), FITC/Ahx-labelled (peptide)
# peptide: ETKKRRRILE
# modifications: not fully specified (N-terminus); also: FITC/Ahx-labelled, position not given here
# notes: also called HaHV1 NLS; HaHV1-NLS
# Biological target: mouse importin α2 lacking the importin-β binding domain (mouse IMPα2ΔIBB) (mouse, UniProt P52293 70-529)
# Assay: fluorescence polarisation
# Details: both partners purified
binder,measurement,value
B1,Kd,609 nM
